# According to patent US8110187:
# pKd: −log10 of the molar value.
# Key:
# [1] = target: Cytotoxic Lymphocyte Maturation Factor (CLMF) 75 kDa heterodimer (human) (UniProt P29460); assay: 125I-CLMF binding to PHA-activated lymphoblasts, supernatant at 1/2 dilution; competitor: CLMF receptor on cells
# [2] = target: CLMF receptor on PHA-activated peripheral blood lymphoblasts (human); assay: Scatchard plot analysis of equilibrium binding of 125I-CLMF to PHA-activated lymphoblasts
# Sequence of CLMF receptor on PHA-activated peripheral blood lymphoblasts (human) (Q99665 24-862, chain 2 of 2, other chains not shown): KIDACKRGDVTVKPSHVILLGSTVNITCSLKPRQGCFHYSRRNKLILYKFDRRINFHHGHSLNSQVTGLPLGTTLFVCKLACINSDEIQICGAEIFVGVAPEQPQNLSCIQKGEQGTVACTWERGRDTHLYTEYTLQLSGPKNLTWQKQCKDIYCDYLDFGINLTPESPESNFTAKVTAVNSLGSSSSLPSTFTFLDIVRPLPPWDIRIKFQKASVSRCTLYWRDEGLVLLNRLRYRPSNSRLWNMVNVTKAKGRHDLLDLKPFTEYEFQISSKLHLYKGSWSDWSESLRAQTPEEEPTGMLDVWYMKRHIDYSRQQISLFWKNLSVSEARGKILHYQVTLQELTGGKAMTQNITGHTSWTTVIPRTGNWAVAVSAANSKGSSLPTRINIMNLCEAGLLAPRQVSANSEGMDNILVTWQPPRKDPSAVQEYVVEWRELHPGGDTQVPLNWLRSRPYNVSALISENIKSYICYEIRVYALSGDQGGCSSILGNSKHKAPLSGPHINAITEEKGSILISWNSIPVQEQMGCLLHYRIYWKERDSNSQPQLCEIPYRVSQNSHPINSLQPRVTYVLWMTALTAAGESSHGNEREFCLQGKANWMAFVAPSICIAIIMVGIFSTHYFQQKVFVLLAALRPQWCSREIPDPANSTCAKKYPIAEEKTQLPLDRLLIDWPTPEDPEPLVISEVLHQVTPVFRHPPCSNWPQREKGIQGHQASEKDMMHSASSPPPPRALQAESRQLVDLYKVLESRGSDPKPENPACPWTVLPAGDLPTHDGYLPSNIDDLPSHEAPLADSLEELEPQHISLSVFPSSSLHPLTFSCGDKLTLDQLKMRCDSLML
Substance,% inhibition of 125I-CLMF binding to the lymphoblasts [1] [%],pKd [2]
Control monoclonal antibody,10,
Cytotoxic Lymphocyte Maturation Factor (CLMF) 75 kDa heterodimer (from UniProt P29460 23-328; P29459 23-219) (ligand),,9.70
